Test results: publication PMC9910500

Molecular target: endogenous p32 (ASF/SF2 splicing factor-associated protein) (human (endogenous in HEK293T)) (UniProt Q07021)
Experiment: co-IP

UniProt Q07021, sequence (Q07021 74-282): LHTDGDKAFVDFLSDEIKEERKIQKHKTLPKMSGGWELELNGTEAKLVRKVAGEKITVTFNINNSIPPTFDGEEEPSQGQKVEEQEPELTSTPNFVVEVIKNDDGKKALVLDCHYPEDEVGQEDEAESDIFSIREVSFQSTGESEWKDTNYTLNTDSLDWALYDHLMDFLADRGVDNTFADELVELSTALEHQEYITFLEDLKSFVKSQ

- increase of RNAPII co-precipitated with p32 in the presence of Tat: 50%
Substance: RNA polymerase II (RNAPII) (complex)
